Measured values as given in patent US9821037B1, “Compounds and method of use as anti-infection compounds and therapeutic agents to regulate cholesterol metabolism” (University of Kentucky Research Foundation, priority 2013, dated 2017).

Key:
BY4741 yeast = experiment: Saccharomyces cerevisiae growth inhibition assay (galactose-inducible over-expression of C-terminus constructs); type: cell-based; conditions: 4 days, 28° C.; for yeast growth with gene expression induced: BY4741, galactose as carbon source
Method: Constructs were created in which the C-terminal 92 AA of YSS, the C-terminal 64 AA of YSS, the C-terminal 66 AA of ASS, the C-terminal 92 AA of YSS in which the 26 AA domain is replaced by the corresponding of ASS or BSS, and the C-terminus of either ASS or BSS in which the 26 AA domain is replaced by the corresponding of YSS were cloned into the pESC-Ura (Gal1 and Gal10 promoters) vector. Constructs were transformed into BY4741 yeast and positive transformants were grown in 2 mL of Yeast-Synthetic Drop-out medium for 4 days. Serial dilutions (Corresponding to O.D.600=0.5, 0.1, 0.02, and 0.004) were plated on selection media containing either glucose or galactose as the carbon source. Pictures were taken after 4 days growth at 28° C.
To test this possibility, a gene coding for the 92 carboxy terminal residues of the yeast squalene synthase was inserted into a galactose inducible expression vector and the recombinant vector introduced into a wild type yeast (BY4741) (FIG. 7). When grown on glucose, expression of the 92 carboxy-terminal squalene synthase gene was suppressed and the transformed yeast grew normally. […] If a plant complementary carboxy-terminal gene was substituted for the yeast, no adverse effects were noted. When the 26 amino acid linker domain was deleted from the yeast gene construct, growth also was not impaired.
Constructs to be tested in S. cerevisiae were created using the pESC-Leu vector (Agilent) which harbors the Gal1/Gal10 divergent promoter to allow for galactose induction of gene expression. Primers used to create these constructs are listed in Table 4 (restriction sites, if any, in bold). YSS-92 was created by PCR amplifying a portion of the YSS gene corresponding to the 92 C-terminal amino acids using the primer sets, YSS-92 EcoRI For and YSS NotI Rev, and YSS-92 BamHI For and YSS HindIII Rev, and cloning into pESC-Leu with the corresponding restriction enzyme sites. ASS-66 and YSS-64 were created in the same manner. ASS-YSS and YSS-ASS were created in a similar manner using YSS-ASS-YSS or ASS-YSS-ASS as the templates for PCR, respectively. […]

[1] = test system: erg9 knockout yeast line CALI7-1; experiment: erg9 complementation assay (restoration of ergosterol prototrophy); type: cell-based, S. cerevisiae; conditions: construct expressed in CALI7-1; plates lacking ergosterol, 28° C., 72 h
Text: Various squalene synthases were cloned into the yeast expression vector, Yep352-ADH1, including those from S. cerevisiae (YSS), B. braunii (BSS), N. benthamiana (TSS), A. thaliana (ASS), and R. norvegicus (RSS), as well as a C-terminal truncated form of YSS in which 24 amino acids comprising the ER membrane-spanning region were eliminated (YSStr). These constructs were transformed into the yeast line CALI7-1, which has been selected for high level FPP biosynthesis (10) and has an erg9 knockout mutation. It is unable to synthesize sterols de novo and is dependent on exogenous ergosterol for growth. […] To evaluate the encoded enzymes for catalytic activity, extracts prepared from the CALI7-1 yeast lines were assayed for squalene synthase enzyme activity. Constructs were also expressed in TN-7 yeast line and cultures were grown in liquid media with ergosterol and subsequently analyzed for squalene accumulation. Squalene levels were determined in TN-7 because in this yeast line, there is no possibility of squalene feeding into the ergosterol biosynthetic pathway. This allows for accurate comparisons of squalene production by the various SS enzymes.
The Cali7-1 yeast line, which has an erg9 deletion so that it cannot synthesize sterols de novo and requires exogenous ergosterol for growth, was used for these purposes (10). […]

| Molecule | yeast growth with gene expression induced (BY4741 yeast) | ability to complement the erg9 deletion (growth without exogenous ergosterol) [1] | yeast growth with gene expression suppressed (BY4741 yeast; BY4741, glucose as carbon source) |
| --- | --- | --- | --- |
| KSKLAVQDPNFLKLNIQISKIEQFME (listed as Saccharomyces cerevisiae) [26 amino acid stretch of YSS, 26 amino acid linker-domain of squalene synthase from S. cerevisiae] | can inhibit the growth of yeast | – | – |
| YSS: squalene synthase from S. cerevisiae (protein, UniProt P29704 1-444, looked up, full-length, squalene synthase from S. cerevisiae) MGKLLQLALHPVEMKAALKLKFCRTPLFSIYDQSTSPYLLHCFELLNLTSRSFAAVIRELHPELRNCVTLFYLILRALDTIEDDMSIEHDLKIDLLRHFHEKLLLTKWSFDGNAPDVKDRAVLTDFESILIEFHKLKPEYQEVIKEITEKMGNGMADYILDENYNLNGLQTVHDYDVYCHYVAGLVGDGLTRLIVIAKFANESLYSNEQLYESMGLFLQKTNIIRDYNEDLVDGRSFWPKEIWSQYAPQLKDFMKPENEQLGLDCINHLVLNALSHVIDVLTYLAGIHEQSTFQFCAIPQVMAIATLALVFNNREVLHGNVKIRKGTTCYLILKSRTLRGCVEIFDYYLRDIKSKLAVQDPNFLKLNIQISKIEQFMEEMYQDKLPPNVKPNETPIFLKVKERSRYDDELVPTQQEEEYKFNMVLSIILSVLLGFYYIYTLHRA | – | could restore ergosterol prototrophy | – |
| YSS-92: the 92 C-terminal amino acids of YSS (protein, UniProt P29704 353-444, looked up, fragment) KSKLAVQDPNFLKLNIQISKIEQFMEEMYQDKLPPNVKPNETPIFLKVKERSRYDDELVPTQQEEEYKFNMVLSIILSVLLGFYYIYTLHRA | growth was severely arrested | – | grew normally |
